For one data set, the target named is T1, His-Ubc13 (yeast, UniProt P52490 1-153).
T1 sequence: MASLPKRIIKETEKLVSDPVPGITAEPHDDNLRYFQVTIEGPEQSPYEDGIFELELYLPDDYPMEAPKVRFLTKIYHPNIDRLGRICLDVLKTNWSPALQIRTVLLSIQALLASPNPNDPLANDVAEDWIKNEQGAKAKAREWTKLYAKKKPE
The experiment in a line: SEC. Background: In gel filtration, larger molecules generally elute earlier.

The data set “SEC” deals with the molecule itself. The experiment in a line: SEC.

Data on two molecules can be found in publication PMC2172719 (The Journal of Cell Biology, 2003).

B1: His-Mms2 (natural protein)
chain: MSKVPRNFRLLEELEKGEKGFGPESCSYGLADSDDITMTKWNGTILGPPHSNHENRIYSLSIDCGPNYPDSPPKVTFISKINLPCVNPTTGEVQTDFHTLRDWKRAYTMETLLLDLRKEMATPANKKLRQPKEGETF
As for B1, the binding result with His-Ubc13 is reported as “binds”.

B2: His-tagged p97 ΔN (domain or fragment)
chain: not shown
In general, stoichiometry N refers to the number of molecules, sites or subunits per partner or assembly. As for B2, the “stoichiometry N” value in “SEC” was 6.
